Data on one molecule can be found in patent US20210324068A1 (H LUNDBECK A S, published 2021).

In the experiment the target is T1, Pituitary Adenylate Cyclase-Activating Polypeptide 38 (PACAP38) (Homo sapiens, not fully specified; C-terminal lysine is amidated; N-terminally or C-terminally biotinylated in the HTRF binding assay and N-terminally biotinylated in the PC-12 cell binding assay).
T1 construct: synthetic peptide (American Peptide; AnaSpec for biotinylated forms); also called human PACAP38; PACAP 1-38
T1 peptide: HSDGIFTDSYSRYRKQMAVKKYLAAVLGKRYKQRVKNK
Nature of the experiment: SPR ProteOn, Ab immobilized.

B1: Ab22 (antibody, V domains shown)
VH: QEQLVESGGGLVQPEGSLTLTCTASGFDFSSNAMCWVRQAPGKGLEWIGSIYNADGKNYYAIWAKGRFTISRTSSTTVTLQMTSLTAADTATYFCARDFDLWGQGTLVTVSS
VL: AAVLTQTPSPVSAAVGGTVTINCQSSQSVYDNDWLAWFQQKPGQPPKLLIYLTSTLASGVPSRFSGSGSGTQFTLTISGVQCDDAATYYCLGGYDEDGDTHVFGGGTEVVVKR
For orientation: Kd means the free concentration of one partner at which half of the binding sites on the other are occupied at equilibrium, for simple one-to-one binding. A lower Kd goes with higher affinity. Usually koff stands for a measure of how fast the partners let go of each other. High values mean fast dissociation, low ones slow dissociation. In turn, B1 had a Kd of 0.027 nM and a koff of 1e-05 s⁻¹.
